Drawing on patent publication US20240279350A1, this text covers EC50, CD83 expression, MoDC maturation assay and EC50, IL-8 release, MoDC maturation assay for one substance.

The target of this experiment is human CD40 on cells (human) (UniProt P25942). In words: cell-based or functional assay.
Sequence of human CD40 on cells (human) (P25942 21-277 limits assumed): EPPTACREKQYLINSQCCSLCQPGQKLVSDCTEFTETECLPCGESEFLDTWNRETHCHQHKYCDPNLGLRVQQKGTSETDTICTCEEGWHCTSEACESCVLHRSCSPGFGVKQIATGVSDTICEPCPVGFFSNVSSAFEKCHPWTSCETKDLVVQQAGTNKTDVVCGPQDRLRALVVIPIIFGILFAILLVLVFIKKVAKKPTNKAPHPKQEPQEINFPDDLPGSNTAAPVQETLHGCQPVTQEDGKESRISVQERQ

“Hexameric CD40L (from UniProt P29965 116-261) (ligand)” registered an EC50, CD83 expression, MoDC maturation assay of 0.24 nM and an EC50, IL-8 release, MoDC maturation assay of 0.33 nM.
